Values quoted from earlier work, collected in publication PMC9927262.
Read-outs that look alike come from different tables or passages of the source.

How the values were obtained:
[1] = target: Spike RBD RBD (SARS-CoV-2) (UniProt P0DTC2)
[2] = target: Spike RBD RBD (SARS-CoV-2) (UniProt P0DTC2); remark: listed apart in the source

Row | Substance | Kd [1] [nM] | Kd [2] [nM]
1 | bamlanivimab | 3.5 | 
2 | etesevimab |  | 4.1
